Measurements from the DeepSol protein solubility set.

Assay: soluble on expression in E. coli; label from the status in PepcDB or PDB records

| Sequence | soluble on expression in E. coli |
| --- | --- |
| MATNWGSLLQDKQQLEELARQAVDRALAEGVLLRTSQEPTSSEVVSYAPFTLFPSLVPSALLEQAYAVQMDFNLLVDAVSQNAAFLEQTLSSTIKQDDFTARLFDIHKQVLKEGIAQTVFLGLNRSDYMFQRSADGSPALKQIEINTISASFGGLASRTPAVHRHVLSVLSKTKEAGKILSNNPSKGLALGIAKAWELYGSPNALVLLIAQEKERNIFDQRAIENELLARNIHVIRRTFEDISEKGSLDQDRRLFVDGQEIAVVYFRDGYMPRQYSLQNWEARLLLERSHAAKCPDIATQLAGTKKVQQELSRPGMLEMLLPGQPEAVARLRATFAGLYSLDVGEEGDQAIAEALAAPSRFVLKPQREGGGNNLYGEEMVQALKQLKDSEERASYILMEKIEPEPFENCLLRPGSPARVVQCISELGIFGVYVRQEKTLVMNKHVGHLLRTKAIEHADGGVAAGVAVLDNPYPV | soluble |
| MATTKPYRVLLYYMYTTIENPEEFAAEHLEFCNSLELKGRILVAKEGINGTCSGTVEQTEKYMEAMNNDPRFDGIVFKIDEADGHAFKKMHVRPRPELVTLRLEDDINPHEITGKYLEPKDFYEAMKQEDTVIIDARNDYEFDLGHFKGAIKPDIESFRELPDWIRENKEVLEGKKILTYCTGGIRCEKFSGWLVREGYEDVSQLHGGIVTYGKDPEVQGELWDGQCYVFDERIAVPVNQKEHVIVGKDHFTGEPCERYVNCSNPECNKKILCSEENEAKYLRACSHECRVSPRNRYVIQHELTEEQVAAALEQIEAGKLEHHHHHH | soluble |
| MATVHKVGDSTGWTTLVPYDYAKWASSNKFHVGDSLLFNYNNKFHNVLQVDQEQFKSCNSSSPAASYTSGADSIPLKRPGTFYFLCGIPGHCQLGQKVEIKVDPGSSSA | soluble |
| MATVLIVGRPNVGKSTLFNKLVKKKKAIVEDEEGVTRDPVQDTVEWYGKTFKLVDTCGVFDNPQDIISQKMKEVTLNMIREADLVLFVVDGKRGITKEDESLADFLRKSTVDTILVANKAENLREFEREVKPELYSLGFGEPIPVSAEHNINLDTMLETIIKKLEEKGLDLESKPEITDAIKVAIVGRPNVGKSTLFNAILNKERALVSPIPGTTRDPVDDEVFIDGRKYVFVDTAGLRRKSRVEPRTVEKYSNYRVVDSIEKADVVVIVLDATQGITRQDQRMAGLMERRGRASVVVFNKWDLVVHREKRYDEFTKLFREKLYFIDYSPLIFTSADKGWNIDRMIDAMNLAYASYTTKVPSSAINSALQKVLAFTNLPRGLKIFFGVQVDIKPPTFLFFVNSIEKVKNPQKIFLRKLIRDYVFPFEGSPIFLKFKRSR | soluble |
| MATYRQRGKKKLWDYRIFNEKSELVASGSGFKTKREAMNEAMRIEQQKLLVNSISSDITLYDLWFEWYSLIIKPSNLAETTKNKYFTRGSVIRKLFGNQKVNKIKHSAYQRKLNTYAEKYTKNHVRRLNSDIKKAIQFAKRDGVLLSDFTDGVVIAGRKFVKDADDKYLHSIFDYKKVISYLENNLDYSNSIVYYLLLVLFKTGLRVGEALALTWDDVNFEDLEIKTYRRFSGDKGTFSPPKTKTSIRTIPISQSLALILRDLKDDQQVMLKNLKIVNMNNQIFYDYRYGVSTNSAINKSLKNVLKILNINSKMTATGARHTYGSYLLAKGVDIWVVARLMGHKDITQLLETYGHVLTEVINKEYETVRSLVS | not soluble |
| MAVGAPFLYRYSLYNCAYVILNGKVLGIVPKSYIPNYSEFYEKRWFTEGFNIKGLNVDLDFQKEVPFGTDLIFSFKNLKVGFEICEDLWVTIPPSSNLALMGANLICNLSASNELVSKSSYRKSLVQNQSARTMCSYIYSSAGVHESTTDLLFSGHMIIAENGTIIKENNRFKRENDLLTGIVDLFKLDAERIKNISFRNSTFNENNEPRFIPFNLENTEIKNFDREIDKHPFLPKSQYAMEARCEEILNIQAAALAKRLEHTNLKKAVIGISGGLDSTLALLVVVKTFDMLNIPRENIITITMPGFGTTDRTYNNAVTLCKELHCDFREINIVNAALQHFEDIGHDKDIHDVTYENVQARERTQILMDLANKEGGLLIGTGDLSELALGWCTYNGDHMSMYSVNCSIPKTLVRFLVNYFANHEISNDAKEALLDILDTPVSPELEHHHHHH | soluble |
